{"source": "paper PMC4755228", "origin": "cited, not measured here", "target": "CD38 (Homo sapiens) (UniProt P28907)", "assay": "BIAcore SPR", "data": [{"substance": "daratumumab", "values": [{"measurement": "Kd", "result": 4.36, "unit": "nM"}]}]}
